Source: article PMC3448026

Columns and labels:
purified protein [1] = substrate: O=C(O)C(=O)/C=C1\C=C[C@H](O)CC1; assay: purified protein; type: biochemical, Bacillus subtilis; settings: 2 mM NADH (saturating), 50 mM potassium phosphate pH 8.0, 1 µM BacG
purified protein [2] = substrate: O=C(O)C(=O)/C=C1/C=C[C@H](O)CC1; assay: purified protein; type: biochemical, Bacillus subtilis; settings: 2 mM NADH (saturating), 50 mM potassium phosphate pH 8.0, 5 µM BacG

B1: BacG (Bacillus subtilis subsp. subtilis str. 168) (protein)
chain: MSKRTAFVMGASQGIGKAIALKLADQHFSLVINSRNLDNIESVKEDILAKHPEASVIVLAGDMSDQHTRAGIFQKIESQCGRLDVLINNIPGGAPDTFDNCNIEDMTATFTQKTVAYIDAIKRASSLMKQNEFGRIINIVGNLWKEPGANMFTNSMMNAALINASKNISIQLAPHNITVNCLNPGFIATDRYHQFVENVMKKNSISKQKAEEQIASGIPMKRVGSAEETAALAAFLASEEASYITGQQISADGGSMKSI
- kcat (purified protein [1]): 1.19 s⁻¹
- kcat (purified protein [2]): 0.553 s⁻¹
